Substitutions are numbered along the chain they refer to. Names and notes keep the numbering of the source.

Experimental findings from patent US20160159928A1 (published 2016) are described below.

B1: VH1-24+CDR3-IL8 IgG (antibody)
VH: QVQLVQSGAEVKKPGASVKVSCKVSGYTLTELSMHWVRQAPGKGLEWMGGFDPEDGETIYAQKFQGRVTMTEDTSTDTAYMELSSLRSEDTAVYYCTSVHQETKKYQSPRSAKELRCQCIKTYSKPFHPKFIKELRVIESGPHCANTEIIVKLSDGRELCLDPKENWVQRVVEKFLKRAENSGSGSYTYNYEWHVDVWGQGLLVTVSSAS
light: not shown
notes: also called VH1-24 BLVCDR3IL8
B2: VH3-23+CDR3-IL8 IgG (antibody)
VH: EVQLLESGGGLVQPGGSLRLSCAASGFTFSSYAMSWVRQAPGKGLEWVSAISGSGGSTYYADSVKGRFTISRDNSKNTLYLQMNSLRAEDTAVYYCTSVHQETKKYQSPRSAKELRCQCIKTYSKPFHPKFIKELRVIESGPHCANTEIIVKLSDGRELCLDPKENWVQRVVEKFLKRAENSGSGSYTYNYEWHVDVWGQGLLVTVSSAS
light: not shown
notes: also called VH3-23 BLVCDR3IL8
B3: VH4-4+CDR3-IL8 IgG (antibody)
VH: QVQLQESGPGLVKPSETLSLTCTVSGGSISSYYWSWIRQPAGKGLEWIGRIYTSGSTNYNPSLKSRVTMSVDTSKNQFSLKLSSVTAADTAVYYCTSVHQETKKYQSPRSAKELRCQCIKTYSKPFHPKFIKELRVIESGPHCANTEIIVKLSDGRELCLDPKENWVQRVVEKFLKRAENSGSGSYTYNYEWHVDVWGQGLLVTVSSAS
light: not shown
notes: also called VH4-4 BLVCDR3IL8
B4: VH4-34+CDR3-IL8 IgG (BLV1H12 light chain) (antibody)
VH: QVQLQQWGAGLLKPSETLSLTCAVYGGSFSGYYWSWIRQPPGKGLEWIGEINHSGSTNYNPSLKSRVTISVDTSKNQFSLKLSSVTAADTAVYYCTSVHQETKKYQSPRSAKELRCQCIKTYSKPFHPKFIKELRVIESGPHCANTEIIVKLSDGRELCLDPKENWVQRVVEKFLKRAENSGSGSYTYNYEWHVDVWGQGLLVTVSSAS
light: not shown
notes: also called VH4-34 BLVCDR3IL8
B5: VH1-46+CDR3-IL8 IgG (antibody)
VH: QVQLVQSGAEVKKPGASVKVSCKASGYTFTSYYMHWVRQAPGQGLEWMGIINPSGGSTSYAQKFQGRVTMTRDTSTSTVYMELSSLRSEDTAVYYCTSVHQETKKYQSPRSAKELRCQCIKTYSKPFHPKFIKELRVIESGPHCANTEIIVKLSDGRELCLDPKENWVQRVVEKFLKRAENSGSGSYTYNYEWHVDVWGQGLLVTVSSAS
light: not shown
notes: also called VH1-46 BLVCDR3IL8
B6: VH1-69+CDR3-IL8 IgG (antibody)
VH: QVQLVQSGAEVKKPGSSVKVSCKASGGTFSSYAISWVRQAPGQGLEWMGGIIPIFGTANYAQKFQGRVTITADKSTSTAYMELSSLRSEDTAVYYCTSVHQETKKYQSPRSAKELRCQCIKTYSKPFHPKFIKELRVIESGPHCANTEIIVKLSDGRELCLDPKENWVQRVVEKFLKRAENSGSGSYTYNYEWHVDVWGQGLLVTVSSAS
light: not shown
notes: also called VH1-69 BLVCDR3IL8
B7: BLV1H12 IgG (antibody)
VH: QVQLRESGPSLVKPSQTLSLTCTASGFSLSDKAVGWVRQAPGKALEWLGSIDTGGNTGYNPGLKSRLSITKDNSKSQVSLSVSSVTTEDSATYYCTSVHQETKKYQSCPDGYRERSDCSNRPACGTSDCCRVSVFGNCLTTLPVSYSYTYNYEWHVDVWGQGLLVTVSSAS
light: not shown
notes: also called ULcowV
B8: VH4-34+CDR3-IL8_CDR1 Cow IgG (BLV1H12 light chain) (antibody)
VH: B4 VH with A23T, V24A, Y25S, G27F, F29L, G31D, Y32K, Y33A, W34V, S35G
light: not shown
notes: also called VH4-34 + CDR3-IL8 + Cow CDR1
B9: VH4-34+CDR3-IL8_CDR2 E50S IgG (BLV1H12 light chain) (antibody)
VH: B4 VH with E50S
light: not shown
notes: also called VH4-34 + CDR3-IL8 + E50S
B10: VH4-34+CDR3-IL8_CDR1 G31D, Y32K IgG (BLV1H12 light chain) (antibody)
VH: B4 VH with G31D, Y32K
light: not shown
notes: also called VH4-34 + CDR3-IL8 + E31D, Y32K
B11: VH4-34+CDR3-IL8_CDR2 Cow IgG (BLV1H12 light chain) (antibody)
VH: B4 VH with I48L, E50S, N52D, H53T, S54G, S56N, N58G
light: not shown
notes: also called VH4-34 + CDR3-IL8 + Cow CDR2
B12: VH4-34+CDR3-IL8_CDR1 Cow with light chain V1-51 (antibody, human IgG1, lambda)
heavy: not shown
light: QSVLTQPPSVSAAPGQKVTISCSGSSSNIGNNYVSWYQQLPGTAPKLLIYDNNKRPSGIPDRFSGSKSGTSATLGITGLQTGDEADYYCASAEDSSSNAVFGSGTTLTVLGQPKAAPSVTLFPPSSEELQANKATLVCLISDFYPGAVTVAWKADSSPVKAGVETTTPSKQSNNKYAASSYLSLTPEQWKSHRSYSCQVTHEGSTVEKTVAPTECS
B13: VH4-34+CDR3-IL8_CDR1 Cow_CDR2 Cow with light chain V1-51 (antibody, human IgG1, lambda)
heavy: not shown
light: B12 light
notes: also called BID 35
B14: VH4-34+CDR3-IL8_CDR1 Cow with light chain V1-51 CDR2 DNN to GDT (antibody)
VH: B4 VH with A23T, V24A, Y25S, G27F, F29L, G31D, Y32K, Y33A, W34V, S35G
light: B12 light with D51G, N52D, N53T
B15: VH4-34+CDR3-IL8_CDR1 Cow_CDR2 Cow with light chain V1-51 CDR1 I29V, N32G (antibody)
VH: QVQLQQWGAGLLKPSETLSLTCTASGFSLSDKAVGWIRQPPGKGLEWLGSIDTGGNTGYNPSLKSRVTISVDTSKNQFSLKLSSVTAADTAVYYCTSVHQETKKYQSPRSAKELRCQCIKTYSKPFHPKFIKELRVIESGPHCANTEIIVKLSDGRELCLDPKENWVQRVVEKFLKRAENSGSGSYTYNYEWHVDVWGQGLLVTVSSAS
light: B12 light with I29V, N32G
B16: VH4-34+CDR3-IL8_CDR1 Cow with light chain V1-51 CDR1 I29V, N32G (antibody)
VH: B15 VH with L48I, S50E, D52N, T53H, G54S, N56S, G58N
light: B12 light with I29V, N32G
B17: VH4-34+CDR3-IL8_CDR1 Cow_CDR2 Cow with light chain V1-51 CDR2 DNNKRP to GDTSRA (antibody)
VH: B15 VH
light: B12 light with D51G, N52D, N53T, K54S, P56A
B18: VH4-34+CDR3-IL8_CDR1 Cow with light chain V1-51 S2A, T5N, P8S, A12G, A13S, P14L (antibody)
VH: B15 VH with L48I, S50E, D52N, T53H, G54S, N56S, G58N
light: B12 light with S2A, T5N, P8S, A12G, A13S, P14L
notes: also called BID 34
B19: VH4-34+CDR3-IL8_CDR1 Cow with light chain V1-51 CDR2 DNNKRP to GDTSRA (antibody)
VH: B15 VH with L48I, S50E, D52N, T53H, G54S, N56S, G58N
light: B12 light with D51G, N52D, N53T, K54S, P56A
B20: VH4-34+CDR3-IL8_CDR1 Cow_CDR2 Cow with light chain V1-51 CDR2 DNN to GDT (antibody)
VH: B15 VH
light: B12 light with D51G, N52D, N53T
B21: VH4-34+CDR3-IL8_CDR1 Cow with light chain V1-51 S2A, T5N, P8S, A12G, A13S, P14L & DNN to GDT (antibody)
VH: B15 VH with L48I, S50E, D52N, T53H, G54S, N56S, G58N
light: B12 light with S2A, T5N, P8S, A12G, A13S, P14L, D51G, N52D, N53T
B22: VH4-34+CDR3-IL8_CDR1 Cow_CDR2 Cow with light chain V1-51 S2A, T5N, P8S, A12G, A13S, P14L (antibody)
VH: B15 VH
light: B12 light with S2A, T5N, P8S, A12G, A13S, P14L
notes: also called BID 36; VH4-34 MutB IL-8 CDR1cow CDR2cow
B23: BLV1H12+CDR3-IL8 heavy chain with BLV1H12 light chain (SEQ ID NO: 412) (antibody, human IgG1)
heavy: not shown
light: QAVLNQPSSVSGSLGQRVSITCSGSSSNVGNGYVSWYQLIPGSAPRTLIYGDTSRASGVPDRFSGSRSGNTATLTISSLQAEDEADYFCASAEDSSSNAVFGSGTTLTVLGQPKSPPSVTLFPPSTEELNGNKATLVCLISDFYPGSVTVVWKADGSTITRNVETTRASKQSNSKYAASSYLSLTSSDWKSKGSYSCEVTHEGSTVTKTVKPSECS

One assay has as its target T1, CXCR1 (UniProt P25024 1-350, limits assumed).
T1 construct: whole, on cells; also called CXCR1 receptor; CXCR1-U2OS
T1 sequence (looked up): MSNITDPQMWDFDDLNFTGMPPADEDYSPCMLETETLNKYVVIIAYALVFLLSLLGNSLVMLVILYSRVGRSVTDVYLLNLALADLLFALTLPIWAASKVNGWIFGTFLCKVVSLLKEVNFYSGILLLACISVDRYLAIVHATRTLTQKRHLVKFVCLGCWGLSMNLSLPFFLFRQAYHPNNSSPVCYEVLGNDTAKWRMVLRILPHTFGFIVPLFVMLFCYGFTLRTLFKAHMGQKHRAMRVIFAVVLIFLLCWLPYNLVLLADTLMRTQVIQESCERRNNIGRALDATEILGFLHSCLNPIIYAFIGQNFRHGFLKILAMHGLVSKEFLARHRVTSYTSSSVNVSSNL
Put plainly: flow cytometry; fluorescence on CXCR1-U2OS over parental U2OS cells. (In general: A flow cytometer gives signals particle by particle.)
Description: (§1) Briefly, a cell line expressing functionally validated CXCR1 derived from U2OS cells was obtained from DiscoveRx and cultured per manufacturer's instructions (Cat#93-0226C3, DiscoveRx Corporation, Freemont, Calif.). The parental cell line U2OS was obtained from ATCC and cultured under the same conditions as the CXCR1 cells. Cell culture supernatants were then tested for binding to cells by flow cytometry. The adherent U2OS or CXCR1-U2OS cells were dissociated with Accutase (Innovative Cell Technologies, Inc., San Diego, Calif.), neutralized with an equal volume of media containing 10% serum, centrifuged at 1000 g, and resuspended in PBS with 2% BSA. Next, cells were dispensed into microtiter plates to achieve between 30,000 to 300,000 cells per well, centrifuged again, and resuspended in cell culture supernatant containing expressed IgG, or a dilution of IgG-containing cell culture supernatant. A fluorescent-conjugated anti-Human Fc antibody was used to detect binding of the expressed antibody to cells.
In the case of B1, the “Ratio of CXCR1/Parental” value is 4.3.

Take B2: the “Ratio of CXCR1/Parental” value worked out at 2.7.

Turning to B3, the “Ratio of CXCR1/Parental” value turned out to be 3.1.

With B4, the “Ratio of CXCR1/Parental” value came out at 9.3.

In the case of B5, the “Ratio of CXCR1/Parental” value is 1.1.

B6: the “Ratio of CXCR1/Parental” value was 4.

Take B7: the “Ratio of CXCR1/Parental” value was determined as 1.9.

A further assay deals with T1, CXCR1. The assay is described as above. This is another data set of the same source.
Description: as §1
For the molecule B4, the “FACS CXCR1/Parental Ratio” value came to 9.3.

Regarding B8, the “FACS CXCR1/Parental Ratio” value was found to be 2.1.

Regarding B9, the “FACS CXCR1/Parental Ratio” value was 4.

In the case of B10, the “FACS CXCR1/Parental Ratio” value came to 8.1.

B11: the “FACS CXCR1/Parental Ratio” value was 8.

As to B7, the “FACS CXCR1/Parental Ratio” value turned out to be 1.9.

For another assay, the target named is T1, CXCR1. Put plainly: flow cytometry, IgG supernatant, fluorescent anti-human Fc; parental U2OS: 5.
Description: as §1
In the case of B1, the “fluorescence on CXCR1-U2OS cells” value stood at 23.

B5: the “fluorescence on CXCR1-U2OS cells” value amounted to 6.

In the case of B7, the “fluorescence on CXCR1-U2OS cells” value was determined as 9.

Another assay addresses T1, CXCR1. Nature of the assay: flow cytometry; CXCR1-U2OS over parental U2OS cells.
Turning to B12, the “CXCR1/Parental Ratio” value was 2.4.

Take B13: the “CXCR1/Parental Ratio” value was 3.1.

In a further assay the target is T1, CXCR1. Nature of the assay: flow cytometry, IgG 10 nM, 2% BSA in PBS plus 2 ug/ml heparin sulfate.
Description: Transfections and ELISA were carried out as described above, and flow cytometry was used to evaluate CXCR1 binding specificity as previously described, with the modification that cells were resuspended in 2% BSA in PBS plus 2 ug/ml Heparin sulfate, and IgGs were normalized to 10 nM during incubation on cells.
On to B14, for which the “CXCR1 specificity (CXCR1/parental ratio)” value amounted to 5.6.

With B15, the “CXCR1 specificity (CXCR1/parental ratio)” value worked out at 11.8.

Turning to B16, the “CXCR1 specificity (CXCR1/parental ratio)” value turned out to be 8.9.

Turning to B17, the “CXCR1 specificity (CXCR1/parental ratio)” value was 6.9.

B18: the “CXCR1 specificity (CXCR1/parental ratio)” value turned out to be 4.7.

In the case of B19, the “CXCR1 specificity (CXCR1/parental ratio)” value is 8.

On to B20, for which the “CXCR1 specificity (CXCR1/parental ratio)” value was 16.7.

Turning to B21, the “CXCR1 specificity (CXCR1/parental ratio)” value turned out to be 6.8.

As to B12, the “CXCR1 specificity (CXCR1/parental ratio)” value turned out to be 7.2.

In the case of B22, the “CXCR1 specificity (CXCR1/parental ratio)” value worked out at 12.2.

B13: the “CXCR1 specificity (CXCR1/parental ratio)” value turned out to be 11.1.

In the next assay the target is T1, CXCR1. Nature of the assay: flow cytometry; secreted IgG, CXCR1-U2OS over parental U2OS cells.
Consider B23, for which the “FACS CXCR1/Parental Ratio” value amounted to 5.
